For assay [1], the system named is bFGF or VEGF induced angiogenesis in Matrigel. The assay can be described thus: Murine Matrigel angiogenesis assay (bFGF or VEGF). Format: in vivo, mouse. The note with it: peptide antagonist; 50 μM in bFGF matrigel, nude mice (FIG. 19G). As for the experimental part: (B, C) Adhesion of endothelial cells to plastic plates coated with 5 μg/ml CS-1 fibronectin, in the presence of medium, anti-α4β1 (HP1/2) or control antibodies (P1F6). (D) Cryosections from bFGF stimulated, saline or antibody-treated CAMs were immunostained to detect blood vessel expression of von Willebrand Factor. (E) Angiogenesis was initiated in FVB/N mice by corneal transplantation of polymerized pellets containing 400 ng/ml of VEGF. Animals (n=5) were treated on day 0 and day 3 with anti-α4β1 (PS/2) or control IgG (cIgG). Fifteen minutes prior to sacrifice on day 5, mice were injected intravenously with endothelial specific lectin, Bandeira simplifolia-FITC and tissues were cryopreserved. Angiogenic response to VEGF was quantified as the percent green fluorescent area visible under high power magnification (100×). […] Matrigel plugs were homogenized in RIPA buffer and fluorescence intensity determined.
[…] Microvessel density was quantified in 10 randomly selected 200× microscopic fields for each plug in each treatment group (n=8). […] Angiogenic response to VEGF was quantified as the percent green fluorescent area visible at 100× magnification. […] Tumor dimensions were determined every other day and tumor mass was determined after four weeks of treatment. […] Statistical significance was determined using Student's t-test.

The test system of assay [2] is endothelial progenitor cells (EPCs). The assay can be described thus: Adhesion of DiI-labeled EPCs to endothelial (HUVEC) monolayers. Type of assay: cell-based, human. To be noted: DiI-labeled EPCs on proliferating HUVEC monolayers; FIG. 17D. As for the experimental part:
(A-B) Adhesion of purified EPCs on plastic plates coated with (A) 5 μg/ml CS-1 fibronectin or (B) recombinant soluble VCAM in the presence of medium, anti-α4β1 (HP1/2) or control antibodies (P1F6). (C) Adhesion of DiI-labeled purified EPCs to HUVEC monolayers VCAM in the presence of medium, anti-α4β1 (HP1/2) or control antibodies (P1F6). Cells were quantified by counting adherent red fluorescent cells per 200× microscopic field. (D) Adhesion of DiI-labeled purified EPCs to HUVEC monolayers in the presence of medium, rsVCAM or control protein. Statistical significance was determined using Student's t-test.
To determine whether EPCs can attach to proliferating vascular endothelium that has been stimulated by angiogenic growth factors, we plated EPCs labeled with DiI-acetylated LDL onto proliferating endothelial monolayers. EPCs bound strongly to endothelium in a α4β1 dependent manner (FIG. 17C) and that rsVCAM blocked EPC attachment to endothelial monolayers (FIG. 17D). […] Thus, α4β1 mediates the attachment of EPCs to VCAM on vascular endothelium. […]

Assay [3] concerns human CD34+ stem cells. The assay can be described thus: CD34+ stem cell adhesion to HUVEC monolayers. Format: cell-based. The note with it: 60 minutes, 25 μg/ml HP2/1 or P1F6 (FIG. 34d-e). On the procedure: Adhesion assays were performed on plastic 48 well plates coated with 5 μg/ml of recombinant H120 CS-1 fibronectin (from Martin J. Humphries, University of Birmingham, UK) as described (Kim et al. (2000) Am. J. Pathol. 156, 1345-1362). Stem cells were incubated on coated plates for 30 minutes in the presence of 25 μg/ml anti-α4β1_(HP2/1) or anti-αvβ5 (P1F6, from Dr. David Cheresh, the Scripps Research Institute). CMTMR labeled stem cells were incubated in HEPES buffered serum free culture medium in the presence of 25 μg/ml HP2/1 or P1F6 on HUVEC monolayers for 60 minutes at 37° C. Unbound cells were removed by washing gently with PBS. Cells were fixed in 3.7% parafomaldeyde. Representative fields were photographed at 200× and the number of cells adhering per field was quantified in five representative fields per treatment condition.

Regarding EILDV, the “neovascularization in Matrigel model” value in assay [1] is reported as “blocked”.

B1: rsVCAM: recombinant soluble VCAM, a competitive inhibitor of integrin α4β1 function (protein)
chain: FKIETTPESRYLAQIGDSVSLTCSTTGCESPFFSWRTQIDSPLNGKVTNEGTTSTLTMNPVSFGNEHSYLCTATCESRKLEKGIQVEIYSFPKDPEIHLSGPLEAGKPITVKCSVADVYPFDRLEIDLLKGDHLMKSQEFLEDADRKSLETKSLEVTFTPVIEDIGKVLVCRAKLHIDEMDSVPTVRQAVKELQVYISPKNTVISVNPSTKLQEGGSVTMTCSSEGLPAPEIFWSKKLDNGNLQHLSGNATLTLIAMRMEDSGIYVCEGVNLIGKNRKEVELIVQEKPFTVEISPGPRIAAQIGDSVMLTCSVMGCESPSFSWRTQIDSPLSGKVRSEGTNSTLTLSPVSFENEHSYLCTVTCGHKKLEKGIQVELYSFPRDPEIEMSGGLVNGSSVTVSCKVPSVYPLDRLEIELLKGETILENIEFLEDTDMKSLENKSLEMTFIPTIEDTGKALVCQAKLHIDDMEFEPKQRQSTQTLYVNVAPRDTTVLVSPSSILEEGSSVNMTCLSQGFPAPKILWSRQLPNGELQPLSENATLTLISTKMEDSGVYLCEGINQAGRSRKEVELIIQVTPKDIKLTAFPSESVKEGDTVIISCTCGNVPETWIILKKKAETGDTVLKSIDGAYTIRKAQLKDAGVYECESKNKVGSQLRSLTLDVQGRENNKDYFSPE
On to B1, for which, in assay [2], the “EPC attachment to endothelial monolayers” value was “blocked”. In addition, the “stem cell adhesion to endothelial cell (EC) monolayers” value in assay [3] is “blocked”.

The record behind these values is US9403908B2, “Method for altering hematopoietic progenitor cell adhesion, differentiation, and migration” (The Regents of the University of California, priority 2003, dated 2016).
